This passage reports activity results from patent publication US20250277199, “NOVEL CRISPR-CAS NUCLEASES FROM METAGENOMES” (Brain Biotech AG, published 2025).

In the series the target is T1, BMC15 (uncultured bacterium (metagenome)).
T1 chain: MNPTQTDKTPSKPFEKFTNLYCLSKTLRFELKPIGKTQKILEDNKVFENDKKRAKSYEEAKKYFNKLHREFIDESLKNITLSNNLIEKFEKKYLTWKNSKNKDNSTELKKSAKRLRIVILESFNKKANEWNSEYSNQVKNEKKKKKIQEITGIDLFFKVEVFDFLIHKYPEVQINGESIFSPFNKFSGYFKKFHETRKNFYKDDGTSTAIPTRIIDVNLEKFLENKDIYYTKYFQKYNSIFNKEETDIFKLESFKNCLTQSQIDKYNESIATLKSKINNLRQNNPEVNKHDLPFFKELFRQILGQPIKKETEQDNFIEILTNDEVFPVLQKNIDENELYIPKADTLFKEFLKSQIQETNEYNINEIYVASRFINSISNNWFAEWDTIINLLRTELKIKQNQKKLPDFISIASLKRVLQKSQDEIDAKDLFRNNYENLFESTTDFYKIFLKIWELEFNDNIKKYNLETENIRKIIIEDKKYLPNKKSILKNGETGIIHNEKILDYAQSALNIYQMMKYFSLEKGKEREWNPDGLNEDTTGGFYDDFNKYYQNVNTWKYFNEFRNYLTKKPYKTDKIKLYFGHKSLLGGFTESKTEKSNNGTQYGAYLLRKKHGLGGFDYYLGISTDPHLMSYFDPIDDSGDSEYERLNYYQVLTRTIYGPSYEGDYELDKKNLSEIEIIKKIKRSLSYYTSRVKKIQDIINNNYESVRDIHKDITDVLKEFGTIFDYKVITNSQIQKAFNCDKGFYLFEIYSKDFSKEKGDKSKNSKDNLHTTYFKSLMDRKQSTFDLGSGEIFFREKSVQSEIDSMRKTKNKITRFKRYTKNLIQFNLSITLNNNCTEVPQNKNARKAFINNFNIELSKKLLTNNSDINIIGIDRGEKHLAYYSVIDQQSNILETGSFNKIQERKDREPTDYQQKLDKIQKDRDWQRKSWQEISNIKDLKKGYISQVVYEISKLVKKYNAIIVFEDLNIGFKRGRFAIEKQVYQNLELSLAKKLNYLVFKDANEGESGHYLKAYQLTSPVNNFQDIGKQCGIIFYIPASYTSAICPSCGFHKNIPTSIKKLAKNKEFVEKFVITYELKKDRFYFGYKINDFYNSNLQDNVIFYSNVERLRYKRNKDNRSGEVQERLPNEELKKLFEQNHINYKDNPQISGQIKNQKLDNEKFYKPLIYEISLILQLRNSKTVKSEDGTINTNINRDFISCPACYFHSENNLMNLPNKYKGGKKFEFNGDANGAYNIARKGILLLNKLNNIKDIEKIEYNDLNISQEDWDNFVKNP
In words: cell_activity; PAM not stated; E. coli depletion, 30 C. A digest of the protocol: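 E. coli carrying arabinose-induced (0.2%) BMC nuclease, grown at 30° C., made electrocompetent and electroporated with 50-100 ng plasmid carrying gRNA against malQ. Transformants plated on selective M9-glucose agar with kanamycin/ampicillin (± nourseothricin), and growth scored after 48 h at 30° C.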

B1: malQ gRNA (BMC stem-loop + 24 nt spacer) ; malQ protospacer (ssRNA ; dsDNA)
RNA: GAUUUCUACUAUUGUAGAUGUGGCGGUACGUUGAUGCAUCGCG
DNA 1: GTGGCGGTACGTTGATGCATCGCG
DNA 2: CGCGATGCATCAACGTACCGCCAC
For the molecule B1, the activity is above 99.9 % colony reduction.
